Reference: publication PMC9960136, “VH-Based Mini Q-Body: A Novel Quench-Based Immunosensor” (Sensors (Basel, Switzerland), 2023)

Legend:
Details in all cases: both partners purified
[1] = target: T1, hen egg lysozyme (Gallus gallus (hen), UniProt P00698); test: ELISA; HEL or BSA (2 μg/mL in 100 μL PBS) coated on microplate wells, 16 h 4 °C; sdAb or mini Q-body added at 2 μg/mL, 1 h 37 °C; bound protein probed with anti-His-HRP
T1 construct: hen egg lysozyme (HEL), lysozyme C of the chicken; No supplier is named for HEL; also called HEL; antigen
T1 sequence (P00698 19-147): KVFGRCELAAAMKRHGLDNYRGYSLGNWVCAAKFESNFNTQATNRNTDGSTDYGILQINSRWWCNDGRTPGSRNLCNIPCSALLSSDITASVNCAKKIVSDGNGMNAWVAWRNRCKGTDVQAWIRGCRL

[2] = target: T2, bovine serum albumin (Bos taurus (bovine), UniProt P02769); test: other fluorescence titration; de-quenching at one concentration: 10 ng mini Q-body in 250 μL PBST; 10 μM antigen added, measured after 5 min; BSA as control antigen
T2 construct: bovine serum albumin (BSA); No supplier is named for BSA; also called BSA; control antigen
T2 sequence (P02769 25-607): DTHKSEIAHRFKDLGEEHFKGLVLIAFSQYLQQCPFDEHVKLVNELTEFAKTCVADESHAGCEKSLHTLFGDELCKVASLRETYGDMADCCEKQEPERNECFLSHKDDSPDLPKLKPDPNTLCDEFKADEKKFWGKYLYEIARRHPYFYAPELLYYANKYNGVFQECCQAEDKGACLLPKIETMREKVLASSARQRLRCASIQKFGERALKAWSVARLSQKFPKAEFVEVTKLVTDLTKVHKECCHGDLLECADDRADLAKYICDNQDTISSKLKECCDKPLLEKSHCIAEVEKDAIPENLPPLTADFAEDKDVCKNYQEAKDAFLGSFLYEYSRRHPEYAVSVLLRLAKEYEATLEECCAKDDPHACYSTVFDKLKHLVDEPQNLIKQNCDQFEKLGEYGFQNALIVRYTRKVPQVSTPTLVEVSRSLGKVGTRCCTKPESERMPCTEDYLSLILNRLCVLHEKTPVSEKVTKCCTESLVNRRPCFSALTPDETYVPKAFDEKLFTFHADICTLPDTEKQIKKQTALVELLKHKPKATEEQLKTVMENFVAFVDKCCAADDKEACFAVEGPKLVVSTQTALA

[3] = target: T1, hen egg lysozyme; test: other fluorescence titration; de-quenching dose response: 10 ng mini Q-body in 250 μL PBST in a quartz cell; antigen added stepwise (0, 1 nM to 10 μM) at 5 min intervals; EC50 by 4-parameter logistic fit

Row | Binder | binding result [1] | binding result [2] | EC50 [3]
1 | TAMRA-C5-labeled C3 W47F mini Q-body (VHH, as the VH of m1 with W47F; Same chain as m10 with the dye on the Cys-tag; also called W47F (after labeling with TAMRA-C5); source: labeled with TAMRA-C5; not shown: His-tag, C-terminal, kept) VHH: EVQLLESGGGLVQPGGSLRLSCAASGFRDSDEDMGWVRQAPGKGLEFVSSIYGESGSTYYADSVKGRFTISRDNSKNTLYLQMNSLRAEDTAVYYCASYNYYYNVFDYWGQGTLVTVSS | binds | – | –
2 | C3 mutant W36F (unlabeled) (VHH, as the VH of m1 with W36F; not shown: His-tag, C-terminal, kept) VHH: EVQLLESGGGLVQPGGSLRLSCAASGFRDSDEDMGFVRQAPGKGLEWVSSIYGESGSTYYADSVKGRFTISRDNSKNTLYLQMNSLRAEDTAVYYCASYNYYYNVFDYWGQGTLVTVSS | no binding (tested: 2 μg/mL) | – | –
3 | C3 mini Q-body labeled with TAMRA-C6(6) (VHH, as the VH of m1; Same chain as m1 with the dye on the Cys-tag; not shown: His-tag, C-terminal, kept) VHH: EVQLLESGGGLVQPGGSLRLSCAASGFRDSDEDMGWVRQAPGKGLEWVSSIYGESGSTYYADSVKGRFTISRDNSKNTLYLQMNSLRAEDTAVYYCASYNYYYNVFDYWGQGTLVTVSS | – | no binding | 362 nM
4 | C3 mini Q-body labeled with TAMRA-C2 (VHH, as the VH of m1; Same chain as m1 with the dye on the Cys-tag; not shown: His-tag, C-terminal, kept) VHH: EVQLLESGGGLVQPGGSLRLSCAASGFRDSDEDMGWVRQAPGKGLEWVSSIYGESGSTYYADSVKGRFTISRDNSKNTLYLQMNSLRAEDTAVYYCASYNYYYNVFDYWGQGTLVTVSS | – | no binding | 50 nM
5 | C3 mutant W47F (unlabeled) (VHH, as the VH of m1 with W47F; not shown: His-tag, C-terminal, kept) VHH: EVQLLESGGGLVQPGGSLRLSCAASGFRDSDEDMGWVRQAPGKGLEFVSSIYGESGSTYYADSVKGRFTISRDNSKNTLYLQMNSLRAEDTAVYYCASYNYYYNVFDYWGQGTLVTVSS | binds | – | –
6 | C3 mini Q-body labeled with ATTO520 (VHH, as the VH of m1; Same chain as m1 with the dye on the Cys-tag; also called ATTO520-C2; not shown: His-tag, C-terminal, kept) VHH: EVQLLESGGGLVQPGGSLRLSCAASGFRDSDEDMGWVRQAPGKGLEWVSSIYGESGSTYYADSVKGRFTISRDNSKNTLYLQMNSLRAEDTAVYYCASYNYYYNVFDYWGQGTLVTVSS | – | no binding | 276 nM

Continued by falling EC50 [3], values first:

Row | binding result [1] | binding result [2] | EC50 [3] | Binder
7 | – | no binding | 401 nM | C3 mini Q-body labeled with TAMRA-C6(5) (VHH, as the VH of m1; Same chain as m1 with the dye on the Cys-tag; not shown: His-tag, C-terminal, kept) VHH: EVQLLESGGGLVQPGGSLRLSCAASGFRDSDEDMGWVRQAPGKGLEWVSSIYGESGSTYYADSVKGRFTISRDNSKNTLYLQMNSLRAEDTAVYYCASYNYYYNVFDYWGQGTLVTVSS
8 | – | no binding | 397 nM | C3 mini Q-body labeled with rhodamine 6G (R6G-C5) (VHH, as the VH of m1; Same chain as m1 with the dye on the Cys-tag; also called R6G-C5 Q-body; Rhodamine 6G-labeled mini Q-body; not shown: His-tag, C-terminal, kept) VHH: EVQLLESGGGLVQPGGSLRLSCAASGFRDSDEDMGWVRQAPGKGLEWVSSIYGESGSTYYADSVKGRFTISRDNSKNTLYLQMNSLRAEDTAVYYCASYNYYYNVFDYWGQGTLVTVSS
9 | – | no binding | 263 nM | C3 mini Q-body labeled with TAMRA-C5 (VHH, as the VH of m1; Same chain as m1 with the dye on the Cys-tag; also called TAMRA-C5-labeled C3 mini Q-body; TAMRA-labeled C3WT; not shown: His-tag, C-terminal, kept) VHH: EVQLLESGGGLVQPGGSLRLSCAASGFRDSDEDMGWVRQAPGKGLEWVSSIYGESGSTYYADSVKGRFTISRDNSKNTLYLQMNSLRAEDTAVYYCASYNYYYNVFDYWGQGTLVTVSS
10 | – | no binding | 39 nM | C3 mini Q-body labeled with TAMRA-C0 (VHH, as the VH of m1; Same chain as m1 with the dye on the Cys-tag; not shown: His-tag, C-terminal, kept) VHH: EVQLLESGGGLVQPGGSLRLSCAASGFRDSDEDMGWVRQAPGKGLEWVSSIYGESGSTYYADSVKGRFTISRDNSKNTLYLQMNSLRAEDTAVYYCASYNYYYNVFDYWGQGTLVTVSS
